Assay results from article PMC5344419, “The structure of FKBP38 in complex with the MEEVD tetratricopeptide binding-motif of Hsp90” (PLoS ONE, 2017).
Entries after “also recorded” stand apart in the source; their conditions may differ.

B1: FKBP^92-380: fragment containing both the immunophilin and TPR domain (protein)
chain: EWLDILGNGLLRKKTLVPGPPGSSRPVKGQVVTVHLQTSLENGTRVQEEPELVFTLGDCDVIQALDLSVPLMDVGETAMVTADSKYCYGPQGRSPYIPPHAALCLEVTLKTAVDGPDLEMLTGQERVALANRKRECGNAHYQRADFVLAANSYDLAIKAITSSAKVDMTFEEEAQLLQLKVKCLNNLAASQLKLDHYRAALRSCSLVLEHQPDNIKALFRKGKVLAQQGEYSEAIPILRAALKLEPSNKTIHAELSKLVKKHAAQRSTETALYRKMLGNPSRLPAKCPG
modifications: left off: His6 (from the vector pDMXV4), C-terminal, kept
notes: fragment containing both the immunophilin and TPR domain
B2: FKBP8: immunophilin with N-terminal glutamate rich region, PPIase domain and tetratricopeptide domain; construct not specified at the place (protein)
chain: MASCAEPSEPSAPLPAGVPPLEDFEVLDGVEDAEGEEEEEEEEEEEDDLSELPPLEDMGQPPAEEAEQPGALAREFLAAMEPEPAPAPAPEEWLDILGNGLLRKKTLVPGPPGSSRPVKGQVVTVHLQTSLENGTRVQEEPELVFTLGDCDVIQALDLSVPLMDVGETAMVTADSKYCYGPQGRSPYIPPHAALCLEVTLKTAVDGPDLEMLTGQERVALANRKRECGNAHYQRADFVLAANSYDLAIKAITSSAKVDMTFEEEAQLLQLKVKCLNNLAASQLKLDHYRAALRSCSLVLEHQPDNIKALFRKGKVLAQQGEYSEAIPILRAALKLEPSNKTIHAELSKLVKKHAAQRSTETALYRKMLGNPSRLPAKCPG
modifications: left off: His6, C-terminal, kept
notes: immunophilin with N-terminal glutamate rich region, PPIase domain and tetratricopeptide domain; construct not specified at the place

Test system: yeast Hsp90
Assay: ATPase activity of yeast Hsp90
Assay type: biochemical
Settings: ATPase assay, 5-molar excess of FKBP^92-380 over Hsp90 (Fig 7)

Molecule	effect on ATPase activity of Hsp90
B1	did not substantially alter
B2	did not substantially influence; also recorded: did not show any substantial effect
